Test results reported in the DeepSol protein solubility set.

Assay: soluble on expression in E. coli; label from the status in PepcDB or PDB records

## MGLIKAATSSVGGGLADQWLEVIEPDNMGDTTVMTKGVFVRKDDKRGSNRKGTDDVLTDGSVVHVYPNMMMLLVDGGKIIDYTAEEGYYTVKNDSAPSMFNGSLKDAIAETFSRFKFGGVTPQKQQVFYINLQEIKGIKFGTPAPLNYFDNFYNAELFLRAHGNYSIKITDPLLFYTNAIPKNQTQVDINDINEQYLAEFITALQAAINQMSADGQRISYVPSKSVELSKYMQTALDEDWRTNRGMEIVSVAVASISYTDDSTKLINMRNEGAMLSDPGVREGYVQGSLARGMEAAGKNEGGAMSGFMGVGMGMNANGNYFAQASQTNQQQMQEKQNQQNAQGATDTWTCPQCGTENTGKFCSNCGTPKPTNEKPKLEMKCSECSEIVDLSNGIPKFCPHCGKPFQGVPL
  soluble on expression in E. coli: not soluble

## MGHHHHHHSHMAATAAVSPSDYLQPAASTTQDSQPSPLALLAATCSKIGPPAVEAAVTPPAPPQPTPRKLVPIKPAPLPLSPGKNSFGILSSKGNILQIQGSQLSASYPGGQLVFAIQNPTMINKGTRSNANIQYQAVPQIQASNSQTIQVQPNLTNQIQIIPGTNQAIITPSPSSHKPVPIKPAPIQKSSTTTTPVQSGANVVKLTGGGGNVTLTLPVNNLVNASDTGAPTQLLTASCQTGMLNSTRMFLFLAFINVL
  soluble on expression in E. coli: not soluble

## MELQKALKEVREQKIAPVYLLIGTELYLTELFKTTLMKELLTEEDDQFNFFSFDMEETPLSAAIAEAETIPFFGDYRLVFVENPYFLTAERKTNGVEHDVNLLLNYLESPSPTTVLVFMASYEKLDERKKITKALKKNATVVDVNPMDEKAIRQYISQTIESEGYTIRSDAFDLLLQLTDLNLSKIMGELQKLYLYALETKTITRGAVQELVPKSLEHNVFDLTNEVLSGNSEKAVQLYEDLLLQGEETIKLNAILLNQIRLFLQTKILAKMGYQQANIADTLKVHPYRVKLALQQVRRFELSRLERLYDELVENDYRMKTGQMDKELLFQLFILKLTAQAK
  soluble on expression in E. coli: not soluble

## MSGNSSTDMYLFKKSLKELKGKKGKGTELISVYVPAGRRLSDISQYLRQELSQSSNIKSKTTMKNVQSAIEVILQRLKLLKEPLEMGVIIFAGMIPRGGPGTEKMEVYVLEPPEPVKTFVYRCDSLFYTDPLEDFIQDTEVYGVILVDRNEATIGTVKGKTITVLKKLTSGVPGKFKAGGQSARRLERLIDDAAHQFMVRIGEYATESFMPILEEKKLKGLLLGGPGNTKNEFAEKDYLHHELKKKIIDTFDLCYTEEFGIRELLDKASDLLRDLDLMKEKNLIQKFFKELIKDDGGLSAYGEAQVMKYLEMGAIDTLIVTEDIGITRVTVKCNNCDYAQEVNVKTNEMFKFEEQLKTKACPTCGGAMYIDEEKDIIEHLSDLCHMHNTDIIVVSTDTEEGSQISRAFKGMAAILRYKL
  soluble on expression in E. coli: not soluble

## MGHHHHHHSHMPQFSPSYSFPVQIYYEDTDFSGVVYHPNFLKYFERAREHVIGAEQLRNLWQQQQLGFAVYRSDMLCHEGVEFADIIDIRTKFYFESKYRTVWHQEIWRPNGKKPAVTATIEMVCMNQARQLAPMPAELITQLSLGM
  soluble on expression in E. coli: soluble

## MPYRKYREKKYETKYREAFKLFQEKIGITFTDEKLLIQAFTHSSYVNEHRKKPHEDNERLEFLGDAVLELTVSQYLFQKYPTMSEGELTKLRAAIVCEPSLVRFANELSFGSLVLLGKGEEMTGGRERPALLADVFEAFIGALYLDQGLETVWGFLKEIVYPKINEGAFSHVMDYKSQLQELIQRDGSGNIEYQILQEKGPAHNREFVSRVTLNNVALGLGSGKSKKEAEQQAAAEALKKLKEQL
  soluble on expression in E. coli: soluble

## MPALSGGDGVIRFQQVSKAYRGGRQALQKVDFHLRRGEMAFLGGHSGAGKSTLLKLICAIERPTDGKISFNGHDITRIPNKDIPFLRRNIGIVFQDHRLLMDRSIYDNVALPMRIESISENEIKRRVSAALDKTGLLDKARCLPSQLSGGEQQRVGIARAVVNRPTLLLADEPTGNLDPELSSRVLRLFEEFNRAGVTILLATHDIHLVNSRPQYRHLELNQGFLSEVADYGR
  soluble on expression in E. coli: not soluble

## MAHHHHHHMRGKGHKRLAARSFQQWQKLHYNALCDRQMPTPLHATLRLPVRRVAHQPSSCPSAPASVDMQLTTNSSAVLQWWQREYDPFLLGCDASAHRTAGPTPPATTATHVLASTRVSAHVGPPAPPLGYPDYIAIEATQHTEGVLRGETYAYHHAAAVGAVPAPPPGAAYPSPVKWIQQPLLDGFVAQRLTAHIGVTTGSLLDTRRTAMALGRQLPPVELSPFYAASALLDRWCLFGEAAAVVPSMPASSGATLDGTQQSQRPHDAAAHHLRIAELALGAGLLSNYRAVWLNGAVLSHPGTARSVLVVGPRRSGKTTLALHCLSAAAMQASSSASGDGGVRLTAAEHFFLAAGMPVRRMLDPASTRLTSPTIFACSLPHHITVGLGAVLGTLRPNPGLAAAVELPSFLQCEAGLRACLRNTDGVLWDMSKTYRVRLEDIYRASSPDISTQWAPVVVNTLAGVVLLDWNVEELASASPTPVRNAVREIPLHDGGVEELLKRAQDYMFHGHHLLRTVYDAPQDAPARLADALADEWDTAQPRSLANGTAPALHCIEGSVNFDLATQLIMSLLSERA
  soluble on expression in E. coli: not soluble

## MAFRKRRHDSEGDSDEERLPINKDEDEDLKAEPAKKSKNMWSDMLLEEQLLEKGQQINLDRTSRKQPNVSRGPESYLMPQDEFQRKQSRNANQKKKNEVFDKPVVLVTPASDDLFGDAPSALNEDFGVKKNDVKLPKDDEAGWWGKKGANKRYNDRMGYHSGGPRQPYPRKTTGQLMASEYSLESMVAAEFAPNLSTKELGTQMAAAMGEKDPDTVKKITNAIGSELSIKLFNETKEIEQNGGMKTADGSRRRTPGGVFITLFKMDSSVSREIKDGIFGDMRNAEKERTKKKKGEKQFTRQLEDMKKTMELAAQAETDLANEEQLATAVDAPFSDDAVDMV
  soluble on expression in E. coli: not soluble

## GHMIARGKFRSLTLINWNGFFARTFDFDELVTTLSGGNGAGKSTTMAGFVTALIPDLTLLNFRNTTEAGSTSSSRDKGLYGKLKAGVCYAVLETVNSRAQRIITGVRLQQIAGRDKKVDIRPFSLQNVPMTDSVISLFTEQVANKARVLSLNDLKEKFEETAVTFKPYHSITDYHSFMFDLGILPKRLRSSSDRNKFYKLIEASLYGGISSVITKSLRDYLLPENSGVRQAFQDMEAALRENSGGSGGSISAESVANILRKTIQREQNRILQLNQGLQNIAFGQVKGVRLVVNIRDTHSILLNALSDQHEQHKDLFESQKLSFSEALAMLYKRINPHIELGQRMPQTIGEELLDYRNYLDLEVETLRGAYGWMRAESSALSTGEAIGTGMSILLMVVQSWEEESRRMRAKDILPCRLLFLDQAARLDAMSINTLFELCERLDMQLLIAAPENISPERGTTYKLVRKILANQEYVHVVGLKGFG
  soluble on expression in E. coli: soluble

## GPGSMAALAALEKEVADLKRVRVFNETVRTGVERVLASLPSPENEKDTSTKVRILLLRSQATLLLPRVSREAEKDLNAALKLQPGSATTWVELSECLLRRNAFKEACDALDNALRVNPAHTEALCKYSQIQRNRCGGEGVTADQRKAYLEDAVAKARAAVGSNVDDADAWNTLALSLLSKVTLEGMTFDGVRKALAAMQQAERKCPEDPDVPYNKAVLESLLGHFGAAAMDYWRAHALDKDRLKGTRHLSEENAKVLLRAQSRMRTSSGIGKRDFQRICTRIEQAHKKYTQSTSAKVVGVLDIVTEPTMQPVTLLVSDGKGDFVLLLLHEVRPTCFKIGDVIAYPVTTPVETITHNIVACPGVEEEPLKLTLSHAYPNPKSILVNGQPLPSSAHVPLQMSSRLFA
  soluble on expression in E. coli: soluble

## MPFIDLQSKLGINVDKWLLAQSGEQPRKRAAFCHAFEKEWIECSHAIGKTRASKECNIEWEDFYECMHRFKTMKRLKEISTQKEKMIKEGTYTPPPHHTGKGEPLS
  soluble on expression in E. coli: not soluble

## MFSTVFVAGYGNSTEGHWQNSWCKITKNSYWVEQEDWNNPNCVDWIESLNALVQSIDGPILLVSHSLGGSTIVEWSKKYSANIIGAFMVAVPDVQCEHFPKEISGYQLPPLEKLPFPSMLLASTNDPYSTLDRSKYFVDIWGSDLTIVGDLKHVNADSNIGEWSYGLNLLNKFITSIDS
  soluble on expression in E. coli: not soluble

## MGSDKIHHHHHHMHHVKTGALSISRLEYGADVIIEPDHLDNFYLIQIPTQGYAEIEFGSQKFISYSQVASLISPQQSLRMCWHANSPQLILKVSKDDFTYHCRQHIADSENNLLIFDPKLDFSTQGGAYFLQLVRTLMDALACEQHPLHHPLAFKQFESNLFNALIYGQPNNALHKLDHYKEKTVSPYFVKRTEAYIKEHLHEPLNVEILAEHAGVSVRTLFTGFKNYLGTTPMSYLKELRFEQAHLELMHNENLSVTDVAFKWGFTHLGRFSQEYKRRYGELPSSTRRSGQSEGSGLITSIFS
  soluble on expression in E. coli: not soluble

## MLKLRFPLPVFRNAREIANGRNARMALKGLVANRAALIISPSFGSSQYFEQVVRLINAQSVRVIERSWQGEPSVEELSGVIGELEDFKPDYILALGGGSIIDGAKLAWLFYECPTLESELLYRPFALPSLRGRAKFAAIPTTVGAGSEVSSAAVMLDSVTNSKKAVVTHDFLPDLVILDPDLVSEVPPKVLKTTVADALSHAIEGYVSLIDNPLMNTFAEQAVSIIYRYRHQFSNDNWSSEMLSELQQAAMFAGWVQNHCIVGLSHAIAHQLGTFNIGHGLANGLLMPAVINFNYREHTAATKYEQLIYKSGLPNKEALLELFEVLVGEQKTDMHFSEQQLTTIAENALLDPAAKSNPVRFTENDVKEIVKQCL
  soluble on expression in E. coli: not soluble

## MNQWDQFLTPYKQAVDELKVKLKGMRKQYEVGEQASPIEFVTGRVKPIASIIDKANKRQIPFDRLREEMYDIAGLRMMCQFVEDIDVVVNILRQRKDFKVIEERDYIRNTKESGYRSYHVIIEYPIETLQGQKFILAEIQIRTLAMNFWATIEHTLRYKYDGAYPDEIQHRLERAAEAAYLLDEEMSEIKDEIQEAQKYYTQKRSKKHEND
  soluble on expression in E. coli: not soluble

## MQTVGVHSIVQQLHRNSIQFTDGYEVKEDIGVGSYSVCKRCIHKATNMEFAVKIIDKSKRDPTEEIEILLRYGQHPNIITLKDVYDDGKYVYVVTELMKGGELLDKILRQKFFSEREASAVLFTITKTVEYLHAQGVVHRDLKPSNILYVDESGNPESIRICDFGFAKQLRAENGLLMTPCYTANFVAPEVLERQGYDAACDIWSLGVLLYTMLTGYTPFANGPDDTPEEILARIGSGKFSLSGGYWNSVSDTAKDLVSKMLHVDPHQRLTAALVLRHPWIVHWDQLPQYQLNRQDAPHLVKGAMAATYSALNRNQSPVLEPVGRSTLAQRRGIKKITSTAL
  soluble on expression in E. coli: soluble

## MKLRRSMLFVPGSNAAMLSNSFIYKPDSIMFDLEDAVALKEKDSARLLVAHALQHPLYKEIETVVRVNPLDSEFGLLDLNSVVRAGVDVVRMPKTESAQDVLDMDHAITEIEKACGREAGSTKMLAAIESPLGITQANQIAFASKRLIGIALGAEDYVRNLKTERSPEGIELLFARCSILQAARAAGIQAFDTVYSNANNEEGFLKEAALIKQLGFDGKSLINPRQIELLHNLFAPTQKDVEQAKRIIEAAVEAERQGAGVVSLNGKMIDAPIIDRAKLVLERAKSGIREELEHHHHHH
  soluble on expression in E. coli: soluble
